Source: article PMC11284795, “Development of Zalfermin, a Long-Acting Proteolytically Stabilized FGF21 Analog” (Journal of Medicinal Chemistry, 2024)

T1: mouse beta-klotho (KLB) on HEK293 cells (mouse, UniProt Q99N32 1-1043)
T1 sequence (looked up): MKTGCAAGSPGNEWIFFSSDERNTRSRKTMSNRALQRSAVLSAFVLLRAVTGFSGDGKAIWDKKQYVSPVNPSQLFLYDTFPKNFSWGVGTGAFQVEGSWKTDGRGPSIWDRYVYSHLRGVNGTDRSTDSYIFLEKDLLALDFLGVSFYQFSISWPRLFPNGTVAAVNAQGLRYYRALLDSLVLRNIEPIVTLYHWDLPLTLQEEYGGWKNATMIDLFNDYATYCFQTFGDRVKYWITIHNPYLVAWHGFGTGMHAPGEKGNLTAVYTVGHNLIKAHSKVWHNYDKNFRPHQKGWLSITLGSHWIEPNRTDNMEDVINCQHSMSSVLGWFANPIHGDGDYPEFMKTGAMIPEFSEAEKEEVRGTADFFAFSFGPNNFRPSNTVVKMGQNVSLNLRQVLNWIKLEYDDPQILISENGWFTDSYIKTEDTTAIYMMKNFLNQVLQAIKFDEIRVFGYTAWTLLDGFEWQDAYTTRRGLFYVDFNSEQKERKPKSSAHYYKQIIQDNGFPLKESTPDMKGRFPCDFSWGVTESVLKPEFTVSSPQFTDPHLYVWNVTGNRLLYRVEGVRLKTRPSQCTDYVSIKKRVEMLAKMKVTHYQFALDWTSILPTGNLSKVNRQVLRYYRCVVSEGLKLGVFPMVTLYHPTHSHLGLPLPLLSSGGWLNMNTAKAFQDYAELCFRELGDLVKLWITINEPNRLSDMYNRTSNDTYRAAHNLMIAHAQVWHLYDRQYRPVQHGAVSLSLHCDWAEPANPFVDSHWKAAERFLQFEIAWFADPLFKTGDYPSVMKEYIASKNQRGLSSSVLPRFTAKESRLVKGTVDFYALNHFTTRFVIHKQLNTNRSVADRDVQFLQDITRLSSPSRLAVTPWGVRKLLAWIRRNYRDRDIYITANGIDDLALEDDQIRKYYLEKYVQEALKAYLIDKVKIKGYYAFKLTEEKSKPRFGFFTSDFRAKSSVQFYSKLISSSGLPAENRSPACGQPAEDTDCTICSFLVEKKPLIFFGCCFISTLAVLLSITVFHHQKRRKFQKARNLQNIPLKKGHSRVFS


Key:
[1] = molecular target: T2, human beta-klotho (KLB) on HEK293 cells (human, UniProt Q86Z14 1-1044); test: cell-based or functional assay
[2] = molecular target: T3, FGFR1c/KLB: ectodomain of human FGFR1c fused to Fc, with human beta-klotho (human, UniProt P11362 22-376; Q86Z14 53-996); test: AlphaScreen or HTRF; competition: biotinylated FGF21 on streptavidin donor beads, ectodomain of human FGFR1c, FGFR2c, FGFR3c or FGFR4 fused to Fc on Protein A acceptor beads, human KLB protein added; signal inhibited by increasing doses of FGF21 analog; 0.1% ovalbumin; indirect measure of binding affinity, reported as IC50; details: both partners purified
T3 construct: ectodomain of human fibroblast growth factor receptor 1, c-isoform (FGFR1c); human beta-klotho (KLB, printed there as BKL) protein; FGFR-Fc on Protein A acceptor beads, KLB added in solution; the bought KLB is, as I recall, the extracellular domain; also called FGF-receptor complex; source: bought: R&D Systems (both proteins)

[3] = molecular target: T3, FGFR1c/KLB: ectodomain of human FGFR1c …; test: cell-based or functional assay
[4] = molecular target: FGFR3c/KLB: ectodomain of human FGFR3c fused to Fc, with human beta-klotho (human, UniProt P22607 23-375; Q86Z14 53-996); test: cell-based or functional assay
[5] = molecular target: T2, human beta-klotho (KLB) on HEK293 cells; test: cell-based or functional assay; remark: listed apart in the source
[6] = molecular target: T1, mouse beta-klotho (KLB) on HEK293 cells; test: cell-based or functional assay
[7] = molecular target: cynomolgus monkey beta-klotho (KLB) on HEK293 cells (cynomolgus monkey); test: cell-based or functional assay
[8] = molecular target: BSA (albumin of the FAP incubations) (bovine, UniProt P02769 25-607); test: cell-based or functional assay
[9] = molecular target: human serum albumin (HSA) (human, UniProt P02768 25-609); test: cell-based or functional assay
[10] = molecular target: the molecule itself; test: AF4-MALS; 15 at 49-88 mg/mL in 10 mM phosphate, pH 8.2 with 2% glycerol, 1 uL injected; running buffer 10 mM phosphate pH 8.2 with 10 mM NaCl; analysed again after dilution to 5 mg/mL

Chain of BSA (albumin of the FAP incubations) (P02769 25-607): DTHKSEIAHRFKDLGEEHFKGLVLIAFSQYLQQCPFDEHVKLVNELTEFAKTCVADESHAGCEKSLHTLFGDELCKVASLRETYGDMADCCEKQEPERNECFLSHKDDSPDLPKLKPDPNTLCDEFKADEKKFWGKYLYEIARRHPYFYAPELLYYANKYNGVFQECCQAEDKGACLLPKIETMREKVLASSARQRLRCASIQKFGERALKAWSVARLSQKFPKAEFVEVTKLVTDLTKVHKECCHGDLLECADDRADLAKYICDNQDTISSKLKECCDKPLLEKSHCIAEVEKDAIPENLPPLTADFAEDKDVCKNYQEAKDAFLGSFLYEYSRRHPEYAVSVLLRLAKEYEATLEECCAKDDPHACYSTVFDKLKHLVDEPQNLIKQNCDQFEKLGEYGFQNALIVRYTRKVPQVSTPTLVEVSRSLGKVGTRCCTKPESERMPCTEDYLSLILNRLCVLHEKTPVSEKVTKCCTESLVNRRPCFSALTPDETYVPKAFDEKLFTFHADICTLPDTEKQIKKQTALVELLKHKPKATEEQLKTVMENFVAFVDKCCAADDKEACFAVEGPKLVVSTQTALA

Binder | potency (EC50) of ERK phosphorylation in HEK293 cells transfected with human KLB, without HSA [1] [nM] | pIC50 [2] | potency EC50 of ERK phosphorylation in Ba/F3 cells overexpressing human KLB and FGFR1c, 0% HSA [3] [nM] | potency EC50 of ERK phosphorylation in Ba/F3 cells overexpressing human KLB and FGFR3c (chimera with the kinase domain of FGFR1c), 0% HSA [4] [nM] | mean EC50 of ERK phosphorylation in HEK293 cells overexpressing human KLB (species qualification) [5] [nM] | mean EC50 of ERK phosphorylation in HEK293 cells overexpressing mouse KLB [6] [nM] | mean EC50 of ERK phosphorylation in HEK293 cells overexpressing cynomolgus monkey KLB [7] [nM] | potency (EC50) of ERK phosphorylation in HEK293 cells transfected with human KLB, without HSA (with 0.1, 1.0 and 1.5% HSA: 1.4, 0.9 and 1.5 nM, Table 3) [1] [nM] | t1/2 of 15 toward degradation by FAP in vitro in the presence of 0.1% albumin (27–57 min for 1, 15 and 5 without albumin) [8] [min] | potency (EC50) of ERK phosphorylation in HEK293/human KLB cells with 0.1, 1.0 and 1.5% HSA: 23, 195 and 198 nM (3.3 nM without HSA) [9] [nM] | binding result [10]
FGF21 analog 17 (-1A, 121Q, 168L, 180C, des181; C18 fatty diacid on 180C) (ligand, human, C18 diacid gGlu-OEG-OEG-C2DA-Ac side chain on Cys180, single amino acid N-terminal extension (-1A), giving the N-terminus AHPIP; human FGF21, mature hormone without its last residue Ser181; numbers count on: the mature protein; source: E. coli BL21 (DE3)-derived strain, inclusion bodies, purified; side chain conjugated to the Cys, purified by anion exchange (MonoQ)) AHPIPDSSPLLQFGGQVRQRYLYTDDAQQTEAHLEIREDGTVGGAADQSPESLLQLKALKPGVIQILGVKTSRFLCQRPDGALYGSLHFDPEACSFRELLLEDGYNVYQSEAHGLPLHLPGQKSPHRDPAPRGPARFLPLPGLPPALPEPPGILAPQPPDVGSSDPLSLVGPSQGRSPSYC | 3.9 | 5.79 ± 0.05 | – | – | – | – | – | – | – | – | –
Met-FGF21 (1) (ligand, human, single amino acid N-terminal extension (-1M), giving the N-terminus MHPIP; human FGF21, mature 181-residue hormone (N-terminus HPIP, C-terminus Ser181); numbers count on: the mature protein; also called human FGF21 with N-terminal Met extension; -1M; source: E. coli BL21 (DE3)-derived strain, inclusion bodies, purified (Q Sepharose FF, Phenyl FF, Source 30Q where needed)) MHPIPDSSPLLQFGGQVRQRYLYTDDAQQTEAHLEIREDGTVGGAADQSPESLLQLKALKPGVIQILGVKTSRFLCQRPDGALYGSLHFDPEACSFRELLLEDGYNVYQSEAHGLPLHLPGNKSPHRDPAPRGPARFLPLPGLPPALPEPPGILAPQPPDVGSSDPLSMVGPSQGRSPSYAS | 1.6 | 6.56 ± 0.89 | 3.7 | 10.8 | 3 | 0.3 | 1.8 | – | – | – | –
stabilized backbone (4): -1A, 121Q, 168L FGF21 (ligand, human, single amino acid N-terminal extension (-1A), giving the N-terminus AHPIP; human FGF21, mature 181-residue hormone; numbers count on: the mature protein; also called stabilized backbone of 15; source: E. coli BL21 (DE3)-derived strain, inclusion bodies, purified (Q Sepharose FF, Phenyl FF, Source 30Q where needed)) AHPIPDSSPLLQFGGQVRQRYLYTDDAQQTEAHLEIREDGTVGGAADQSPESLLQLKALKPGVIQILGVKTSRFLCQRPDGALYGSLHFDPEACSFRELLLEDGYNVYQSEAHGLPLHLPGQKSPHRDPAPRGPARFLPLPGLPPALPEPPGILAPQPPDVGSSDPLSLVGPSQGRSPSYAS | – | 6.18 ± 0.1 | – | – | – | – | – | 2 | – | – | –
FGF21 analog 18 (-1A, 121Q, 168L, 181C; C18 fatty diacid on 181C) (ligand, human, C18 diacid gGlu-OEG-OEG-C2DA-Ac side chain on Cys181, single amino acid N-terminal extension (-1A), giving the N-terminus AHPIP; human FGF21, mature 181-residue hormone; numbers count on: the mature protein; source: E. coli BL21 (DE3)-derived strain, inclusion bodies, purified; side chain conjugated to the Cys, purified by anion exchange (MonoQ)) AHPIPDSSPLLQFGGQVRQRYLYTDDAQQTEAHLEIREDGTVGGAADQSPESLLQLKALKPGVIQILGVKTSRFLCQRPDGALYGSLHFDPEACSFRELLLEDGYNVYQSEAHGLPLHLPGQKSPHRDPAPRGPARFLPLPGLPPALPEPPGILAPQPPDVGSSDPLSLVGPSQGRSPSYAC | 39 | 5.72 ± 0.02 | – | – | – | – | – | – | – | – | –
zalfermin (NNC0194-0499, 15) (ligand, human, C18 diacid gGlu-OEG-OEG-C2DA-Ac side chain on Cys180, single amino acid N-terminal extension (-1Ala), giving the N-terminus AHPIP; human FGF21, mature 181-residue hormone; numbers count on: the mature protein; 20.3 kDa; also called FGF21 analog 15; source: E. coli BL21 (DE3)-derived strain, inclusion bodies, purified; side chain conjugated to the Cys, purified by anion exchange (MonoQ)) AHPIPDSSPLLQFGGQVRQRYLYTDDAQQTEAHLEIREDGTVGGAADQSPESLLQLKALKPGVIQILGVKTSRFLCQRPDGALYGSLHFDPEACSFRELLLEDGYNVYQSEAHGLPLHLPGQKSPHRDPAPRGPARFLPLPGLPPALPEPPGILAPQPPDVGSSDPLSLVGPSQGRSPSYCS | 3.3 | 6.13 ± 0.8 | 4.1 | 11.9 | 2.8 | 0.1 | 1.4 | – | 448 | 198 | binds
